In PMC13365404 (npj Viruses, 2026):

Columns and labels:
Settings in all cases: one partner purified
[1] = biological target: T1, EBOV GP (Mayinga), full-length transmembrane glycoprotein expressed on MDCK SIAT-1 cells (Ebola virus, Mayinga (NP_066246.1), UniProt Q05320); assay: immunoprecipitation
[2] = biological target: T2, BDBV GP, full-length transmembrane glycoprotein expressed on MDCK SIAT-1 cells (Bundibugyo virus, Butalya-811250 …, UniProt B8XCN0); assay: immunostaining of cells or tissue
[3] = biological target: T3, TAFV GP, full-length transmembrane glycoprotein expressed on MDCK SIAT-1 cells (Taï Forest virus (YP_003815426.1), UniProt Q66810); assay: immunostaining of cells or tissue
[4] = biological target: RESTV GP expressed on MDCK SIAT-1 cells (Reston virus, isolate ; …, UniProt Q66799); assay: immunostaining of cells or tissue
[5] = biological target: T4, SUDV GP, full-length transmembrane glycoprotein expressed on MDCK SIAT-1 cells (Sudan virus, Gulu 2000 (YP_138523.1), UniProt Q7T9D9); assay: immunostaining of cells or tissue
T4 construct: source: MDCK SIAT-1 cell line expressing GP (generated previously), on the cell surface

[6] = biological target: T2, BDBV GP, full-length transmembrane …; assay: immunoprecipitation
[7] = biological target: T3, TAFV GP, full-length transmembrane …; assay: immunoprecipitation
[8] = biological target: T1, EBOV GP (Mayinga), full-length …; assay: immunostaining of cells or tissue

Measured: binding result

B1: mAb 11883 (recombinant rabbit IgG) (antibody, V domains shown)
VH: QEQLVESGGGLVQPEGSLTLTCTASGFSFSSNCWRCWVRQAPGKGLEWIACVCAGRSGGTTYYASWAKGRFTISKTSSPTVTLQMTSLTAADTATYFCARAGYDDYGDASFFNLWGPGTLVTVS
VL: AVVLTQTASPVSTPVGGTVTIKCQASQNIYSNLAWYQQKPGQPPKLLIYSASTLASGVPSRFKGSGSGTEYTLTISDLECADAATYYCQRYYYLSGSADNTFGGGTEVVVK
notes: source: HEK293F, transfected, purified (Protein A)
binds: [1] | [2] | [3] | [4] | [5]

B2: mAb 11886 (recombinant rabbit IgG) (antibody, V domains shown)
VH: QSVEESGGRLVTPGTPLTLTCIVSGFSLSNYYMSWVRQVPGKGLEWIGVIGWSGTSSYASWAKGRFTISKTASTTVDLKITSPTTEDTATYFCARVLYIGGGFNYYDAFDPWGPGTLVTVS
VL: DVVMTQTPASVSEPVGGTVTIKCQASQSIGSNLAWYQQKPGQPPKLLIYAASTLASGVPSRFKGSGSGTEFTLTISDLECADAATYYCQCTYYDSSYVYNNFGGGTEVVVK
notes: as for B1
binds: [6] | [7] | [8] | [4] | [5]
